Marks after values point to notes of the source that are not given here.
Legend:
Format in all cases: biochemical
[1] = Butyryl-CoA dehydrogenase activity utilizing ferricenium ion
Procedure: Cells were lysed using Bacterial Protein Extraction Reagent (B-PER) (Thermo Scientific, Waltham, Mass.) as per the prescribed protocol in order to obtain the supernatant containing the active enzymes. FadE and YdiO were purified following previously established methods^45 using the same growth conditions mentioned above.
Cell pellets were resuspended in 40 mL of 50 mM potassium phosphate buffer pH 7.2 and broken by disruption EmulsiFlex-05 homogenizer (Avestin, Ottawa, ON). Disrupted cells were then spun for 90 min at 4° C. at 120,000×g in a Optima L-80XP Ultracentrifuge (Beckman-Coulter, Schaumburg, Ill.) to produce the supernatant used for assays.
For specific activity assays (reported in μmol substrate/mg protein/min) these supernatant fractions were utilized and protein concentration was established using the Bradford Reagent (Thermo Scientific, Waltham, Mass.) using BSA as the protein standard. Linearity was established for each reaction and the background non-enzymatic rate was subtracted to establish the activity.
For FadE and YdiO, Butyryl-CoA dehydrogenase activity was measured utilizing ferricenium ion^49. Reactions were performed in 50 mM potassium phosphate pH 7.2, 0.4 mM MgSO4, 200 μM ferrocenium hexafluorophosphate, and 200 μM Butyryl-CoA and monitored the formation of the reduced ferrocene ion at 300 nm (ε=4.3 mM^−1 cm^−1).

[2] = β-hydroxybutyryl-CoA dehydrogenase assay (NADH dependent reduction of acetoacetyl-CoA)
Procedure: (§1) Cultures for enzymatic assays were grown overnight in 100 mL of LB media at 37° C. in 250 mL baffled flasks (Wheaton Industries, Inc., Millville, N.J.) in E. coli BL21 (DE3) cells induced with either 1 mM IPTG (pCA24N, pTrcHis2A) or 1 mM Arabinose (pUCBB-pBAD) at an OD600˜0.6, or expressed constitutively (pUCBB-ntH6). Reactions were monitored on either a Synergy HT plate reader (BioTek Instruments, Inc., Winooski, Vt.) at 25° C. (for reactions monitored at 300 nm or higher) or in a Biomate 5 Spectrophotometer (Thermo Scientific, Waltham, Mass.) for reactions at 263 nm. […]
(§2) For kinetic characterization, his-tagged proteins of AtoB, FadA, FadB, caHBD, egTER were purified from the B-PER supernatant fractions using Talon Metal Affinity Resin (Clontech Laboratories, Inc., Mountain View, Calif.) using gravity purification. […] Enzyme concentration was established by measuring the absorbance at […] and extinction coefficients predicted for each enzyme by the ProtParam program (web.expasy.org/protparam/).
(§3) For kinetic characterization, an appropriate amount of enzyme was established by checking linear range near predicted KM values. Then, the rates were measured for a range of substrates in order to establish kcat and KM. […]

[3] = crotonase activity (loss of crotonoyl-CoA at 263 nm); details: substrate Crotonyl-CoA; supernatant fraction; expressed from pUCBB-ntH6
Procedure: as §1, §2, §3

[4] = crotonyl-CoA reductase activity (loss of NADH absorbance); details: substrate Crotonyl-CoA; supernatant fraction; expressed from pTrcHis2A
Procedure: as §1, §2, §3

[5] = forward thiolase assay (biosynthetic direction), coupled with caHBD; details: substrate Acetyl-CoA; supernatant fraction; AtoB expressed from pCA24N, FadA from pUCBB-ntH6
Procedure: as §1, §2, §3

[6] = thiolase activity in the reverse direction (loss of acetoacetyl-CoA at 303 nm); details: substrate Acetoacetyl-CoA; supernatant fraction; AtoB expressed from pCA24N, FadA from pUCBB-ntH6
Procedure: as §1, §2, §3

B1: FadE: E. coli acyl-CoA dehydrogenase, a medium-long-chain fatty acyl-CoA dehydrogenase (protein, UniProt Q47146 1-814, looked up)
Acyl-coenzyme A dehydrogenase: MMILSILATVVLLGALFYHRVSLFISSLILLAWTAALGVAGLWSAWVLVPLAIILVPFNFAPMRKSMISAPVFRGFRKVMPPMSRTEKEAIDAGTTWWEGDLFQGKPDWKKLHNYPQPRLTAEEQAFLDGPVEEACRMANDFQITHELADLPPELWAYLKEHRFFAMIIKKEYGGLEFSAYAQSRVLQKLSGVSGILAITVGVPNSLGPGELLQHYGTDEQKDHYLPRLARGQEIPCFALTSPEAGSDAGAIPDTGIVCMGEWQGQQVLGMRLTWNKRYITLAPIATVLGLAFKLSDPEKLLGGAEDLGITCALIPTTTPGVEIGRRHFPLNVPFQNGPTRGKDVFVPIDYIIGGPKMAGQGWRMLVECLSVGRGITLPSNSTGGVKSVALATGAYAHIRRQFKISIGKMEGIEEPLARIAGNAYVMDAAASLITYGIMLGEKPAVLSAIVKYHCTHRGQQSIIDAMDITGGKGIMLGQSNFLARAYQGAPIAITVEGANILTRSMMIFGQGAIRCHPYVLEEMEAAKNNDVNAFDKLLFKHIGHVGSNKVRSFWLGLTRGLTSSTPTGDATKRYYQHLNRLSANLALLSDVSMAVLGGSLKRRERISARLGDILSQLYLASAVLKRYDDEGRNEADLPLVHWGVQDALYQAEQAMDDLLQNFPNRVVAGLLNVVIFPTGRHYLAPSDKLDHKVAKILQVPNATRSRIGRGQYLTPSEHNPVGLLEEALVDVIAADPIHQRICKELGKNLPFTRLDELAHNALVKGLIDKDEAAILVKAEESRLRSINVDDFDPEELATKPVKLPEKVRKVEAA
Which activity upon purification ([1]; purified enzyme) does the source give for B1 here?
Its activity upon purification is “no detectable activities”.

And the “Specific Activity” value ([1]; substrate Butyryl-CoA, crude extract of cells, expressed from pCA24N)?
Its value is 0.008 ± 0.001^b μmol/mg/min.

B2: paaH: E. coli 3-hydroxyadipyl-CoA dehydrogenase that participates in the degradation of phenylacetate (protein, UniProt P76083 1-475, looked up)
3-hydroxyadipyl-CoA …: MMINVQTVAVIGSGTMGAGIAEVAASHGHQVLLYDISAEALTRAIDGIHARLNSRVTRGKLTAETCERTLKRLIPVTDIHALAAADLVIEAASERLEVKKALFAQLAEVCPPQTLLTTNTSSISITAIAAEIKNPERVAGLHFFNPAPVMKLVEVVSGLATAAEVVEQLCELTLSWGKQPVRCHSTPGFIVNRVARPYYSEAWRALEEQVAAPEVIDAALRDGAGFPMGPLELTDLIGQDVNFAVTCSVFNAFWQERRFLPSLVQQELVIGGRLGKKSGLGVYDWRAEREAVVGLEAVSDSFSPMKVEKKSDGVTEIDDVLLIETQGETAQALAIRLARPVVVIDKMAGKVVTIAAAAVNPDSATRKAIYYLQQQGKTVLQIADYPGMLIWRTVAMIINEALDALQKGVASEQDIDTAMRLGVNYPYGPLAWGAQLGWQRILRLLENLQHHYGEERYRPCSLLRQRALLESGYES
For B2, which “specific activity toward the reduction of acetoacetyl-CoA” value ([2]; purified enzyme, data not shown) is on record?
The value was “moderate”.

B3: FadB: E. coli hydroxyacyl-CoA dehydrogenase and enoyl-CoA hydratase, part of fatty acid oxidation complex (protein, UniProt P21177 1-729, looked up)
Fatty acid oxidation complex …: MLYKGDTLYLDWLEDGIAELVFDAPGSVNKLDTATVASLGEAIGVLEQQSDLKGLLLRSNKAAFIVGADITEFLSLFLVPEEQLSQWLHFANSVFNRLEDLPVPTIAAVNGYALGGGCECVLATDYRLATPDLRIGLPETKLGIMPGFGGSVRMPRMLGADSALEIIAAGKDVGADQALKIGLVDGVVKAEKLVEGAKAVLRQAINGDLDWKAKRQPKLEPLKLSKIEATMSFTIAKGMVAQTAGKHYPAPITAVKTIEAAARFGREEALNLENKSFVPLAHTNEARALVGIFLNDQYVKGKAKKLTKDVETPKQAAVLGAGIMGGGIAYQSAWKGVPVVMKDINDKSLTLGMTEAAKLLNKQLERGKIDGLKLAGVISTIHPTLDYAGFDRVDIVVEAVVENPKVKKAVLAETEQKVRQDTVLASNTSTIPISELANALERPENFCGMHFFNPVHRMPLVEIIRGEKSSDETIAKVVAWASKMGKTPIVVNDCPGFFVNRVLFPYFAGFSQLLRDGADFRKIDKVMEKQFGWPMGPAYLLDVVGIDTAHHAQAVMAAGFPQRMQKDYRDAIDALFDANRFGQKNGLGFWRYKEDSKGKPKKEEDAAVEDLLAEVSQPKRDFSEEEIIARMMIPMVNEVVRCLEEGIIATPAEADMALVYGLGFPPFHGGAFRWLDTLGSAKYLDMAQQYQHLGPLYEVPEGLRNKARHNEPYYPPVEPARPVGDLKTA
With B3 as the molecule, how does the “Specific Activity” value ([2]; substrate Acetoacetyl-CoA, supernatant fraction, expressed from pUCBB-ntH6) read?
The value was 0.185 ± 0.001^c μmol/mg/min.

What about the “Specific Activity” value [3] of the same molecule?
Its value is 0.051 ± 0.004^c μmol/mg/min.

B4: egTER: NAD(P)H-dependent trans-2-enoyl-CoA reductase from Euglena gracilis (protein, UniProt Q5EU90 69-539, looked up)
Trans-2-enoyl-CoA reductase: VPQMAEGFSGEATSAWAAAGPQWAAPLVAAASSALALWWWAARRSVRRPLAALAELPTAVTHLAPPMAMFTTTAKVIQPKIRGFICTTTHPIGCEKRVQEEIAYARAHPPTSPGPKRVLVIGCSTGYGLSTRITAAFGYQAATLGVFLAGPPTKGRPAAAGWYNTVAFEKAALEAGLYARSLNGDAFDSTTKARTVEAIKRDLGTVDLVVYSIAAPKRTDPATGVLHKACLKPIGATYTNRTVNTDKAEVTDVSIEPASPEEIADTVKVMGGEDWELWIQALSEAGVLAEGAKTVAYSYIGPEMTWPVYWSGTIGEAKKDVEKAAKRITQQYGCPAYPVVAKALVTQASSAIPVVPLYICLLYRVMKEKGTHEGCIEQMVRLLTTKLYPENGAPIVDEAGRVRVDDWEMAEDVQQAVKDLWSQVSTANLKDISDFAGYQTEFLRLFGFGIDGVDYDQPVDVEADLPSAAQQ
Which “Specific Activity” value [4] does the source give for B4 here?
Its value is 5.4 ± 0.6^d μmol/mg/min.

B5: FadA: E. coli 3-ketoacyl-CoA thiolase (thiolase I), a component of fatty acid oxidation complex FadAB (protein, UniProt P21151 1-387, looked up)
3-ketoacyl-CoA thiolase FadA: MEQVVIVDAIRTPMGRSKGGAFRNVRAEDLSAHLMRSLLARNPALEAAALDDIYWGCVQQTLEQGFNIARNAALLAEVPHSVPAVTVNRLCGSSMQALHDAARMIMTGDAQACLVGGVEHMGHVPMSHGVDFHPGLSRNVAKAAGMMGLTAEMLARMHGISREMQDAFAARSHARAWAATQSAAFKNEIIPTGGHDADGVLKQFNYDEVIRPETTVEALATLRPAFDPVNGMVTAGTSSALSDGAAAMLVMSESRAHELGLKPRARVRSMAVVGCDPSIMGYGPVPASKLALKKAGLSASDIGVFEMNEAFAAQILPCIKDLGLIEQIDEKINLNGGAIALGHPLGCSGARISTTLLNLMERKDVQFGLATMCIGLGQGIATVFERV
For B5, which “Specific Activity” value [5] is on record?
The value was “Not detected^c”.

What about the “Specific Activity” value [6] of the same molecule?
Its value is 0.013 ± 0.002^c μmol/mg/min.

Source: US9994881B2, “Functionalized carboxylic acids and alcohols by reverse fatty acid oxidation in engineered microbes” (William Marsh Rice University, priority 2011, dated 2018)
